Biological target: extracellular domain of SARS‐CoV‐2 spike protein (ECD) (SARS‐CoV‐2, UniProt P0DTC2 14-1213)
Experiment: ELISA

B1: h‐deface2 (designed binder)
chain: EFHGPSWCLTPADRGLCRANENRFYYNSVIGKCRPFKYSGCGGNENNFTSKDKCLHECKKG
Kd: 54.4 nM
